Measured values reported in patent US20180044393A1 (INSERM INSTITUT NATIONAL DE LA SANT ET DE LA RECHERCHE M …, published 2018).
Numbering of substitutions follows the chain as printed. Positions of bridges follow the written chain, without caps; N, C: chain ends. No end group written: not given here. *: point of attachment. 125I = [125I]*

What was measured:
Test in all cases: 125I-OxA binding on CHO-S cells expressing the OX1R mutant
OX1R F220A = target: T1, OX1R F220A (human, UniProt O43613 1-425)
T1 construct: site-directed mutant (TM5) stably expressed in CHO-S cells; not shown: YFP from vector pEYFP-N2 fused at the C-terminus
T1 chain: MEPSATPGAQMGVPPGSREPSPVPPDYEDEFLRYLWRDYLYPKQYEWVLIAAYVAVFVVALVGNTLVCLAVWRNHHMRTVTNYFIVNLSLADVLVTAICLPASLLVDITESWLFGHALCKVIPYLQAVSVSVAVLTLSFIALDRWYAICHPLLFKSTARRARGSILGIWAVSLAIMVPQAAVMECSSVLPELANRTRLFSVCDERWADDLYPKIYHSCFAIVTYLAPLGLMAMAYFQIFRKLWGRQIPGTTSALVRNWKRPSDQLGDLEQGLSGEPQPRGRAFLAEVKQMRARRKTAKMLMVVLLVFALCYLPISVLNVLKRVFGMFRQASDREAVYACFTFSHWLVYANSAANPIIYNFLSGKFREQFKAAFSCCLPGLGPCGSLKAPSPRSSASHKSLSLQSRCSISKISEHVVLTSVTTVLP
Experimental: (§1) CHO—S cells expressing recombinant native or mutated OX1R were grown as previously described (El Firar et al., 2009) and maintained at 37° C. in a humidified 5% CO₂/air incubator. ¹²⁵I-orexia-A (74 TBq/mmol) was prepared as previously described (El Firar et al., 2009). […] Free peptides were removed by 2 cell washing cycles with PBS. […] Data were analyzed using the GraphPad software (http://www.graphpad.com).
(§2) All residues of OX1R fulfilling this condition were mutated to alanine by site-directed mutagenesis (Table II).

OX1R N318A = target: T2, OX1R N318A (human, UniProt O43613 1-425)
T2 construct: site-directed mutant (TM6) stably expressed in CHO-S cells; not shown: YFP from vector pEYFP-N2 fused at the C-terminus
T2 chain: T1 chain with A220F, N318A
Experimental: as §1, §2

OX1R F340A = target: T3, OX1R F340A (human, UniProt O43613 1-425)
T3 construct: site-directed mutant (TM7) stably expressed in CHO-S cells; not shown: YFP from vector pEYFP-N2 fused at the C-terminus
T3 chain: T1 chain with A220F, F340A
Experimental: as §1, §2

OX1R T341A = target: T4, OX1R T341A (human, UniProt O43613 1-425)
T4 construct: site-directed mutant (TM7) stably expressed in CHO-S cells; not shown: YFP from vector pEYFP-N2 fused at the C-terminus
T4 chain: T1 chain with A220F, T341A
Experimental: as §1, §2

binding result (OX1R F220A): binds | binding result (OX1R N318A): binds | binding result (OX1R F340A): binds | binding result (OX1R T341A): binds
B1: 125I-orexin-A (peptide, UniProt O43612 34-66, looked up)
peptide: QPLPDCCRQKTCSCRLY(125I)ELLHGAGNHAAGILTL
modifications: disulfide 6-12, 7-14; not fully specified (residue 1, C-terminus)
notes: mature; also called OxA
